Here are results for four molecules from paper PMC9637774.

The target of data set [1] is T1, Dicer-1 (Dcr-1);Loqs-PB (Loquacious isoform PB) (Drosophila melanogaster;Drosophila …, UniProt Q9VCU9;Q9VJY9 1-2249;1-465, |). In words: cryo-EM structure.
In data set [2] the target is T1, Dicer-1 (Dcr-1);Loqs-PB (Loquacious …). The experiment in a line: competition.
Data set [3] shares this target. The experiment in a line: cryo-EM structure. The source holds these as a separate data set.
Data set [4] shares this target. The experiment in a line: cryo-EM structure. The source holds these as a separate data set.

Positions count from the first letter of the chain named.

T1 sequence (Q9VCU9 whole entry, chain 1 of 2, canonical isoform): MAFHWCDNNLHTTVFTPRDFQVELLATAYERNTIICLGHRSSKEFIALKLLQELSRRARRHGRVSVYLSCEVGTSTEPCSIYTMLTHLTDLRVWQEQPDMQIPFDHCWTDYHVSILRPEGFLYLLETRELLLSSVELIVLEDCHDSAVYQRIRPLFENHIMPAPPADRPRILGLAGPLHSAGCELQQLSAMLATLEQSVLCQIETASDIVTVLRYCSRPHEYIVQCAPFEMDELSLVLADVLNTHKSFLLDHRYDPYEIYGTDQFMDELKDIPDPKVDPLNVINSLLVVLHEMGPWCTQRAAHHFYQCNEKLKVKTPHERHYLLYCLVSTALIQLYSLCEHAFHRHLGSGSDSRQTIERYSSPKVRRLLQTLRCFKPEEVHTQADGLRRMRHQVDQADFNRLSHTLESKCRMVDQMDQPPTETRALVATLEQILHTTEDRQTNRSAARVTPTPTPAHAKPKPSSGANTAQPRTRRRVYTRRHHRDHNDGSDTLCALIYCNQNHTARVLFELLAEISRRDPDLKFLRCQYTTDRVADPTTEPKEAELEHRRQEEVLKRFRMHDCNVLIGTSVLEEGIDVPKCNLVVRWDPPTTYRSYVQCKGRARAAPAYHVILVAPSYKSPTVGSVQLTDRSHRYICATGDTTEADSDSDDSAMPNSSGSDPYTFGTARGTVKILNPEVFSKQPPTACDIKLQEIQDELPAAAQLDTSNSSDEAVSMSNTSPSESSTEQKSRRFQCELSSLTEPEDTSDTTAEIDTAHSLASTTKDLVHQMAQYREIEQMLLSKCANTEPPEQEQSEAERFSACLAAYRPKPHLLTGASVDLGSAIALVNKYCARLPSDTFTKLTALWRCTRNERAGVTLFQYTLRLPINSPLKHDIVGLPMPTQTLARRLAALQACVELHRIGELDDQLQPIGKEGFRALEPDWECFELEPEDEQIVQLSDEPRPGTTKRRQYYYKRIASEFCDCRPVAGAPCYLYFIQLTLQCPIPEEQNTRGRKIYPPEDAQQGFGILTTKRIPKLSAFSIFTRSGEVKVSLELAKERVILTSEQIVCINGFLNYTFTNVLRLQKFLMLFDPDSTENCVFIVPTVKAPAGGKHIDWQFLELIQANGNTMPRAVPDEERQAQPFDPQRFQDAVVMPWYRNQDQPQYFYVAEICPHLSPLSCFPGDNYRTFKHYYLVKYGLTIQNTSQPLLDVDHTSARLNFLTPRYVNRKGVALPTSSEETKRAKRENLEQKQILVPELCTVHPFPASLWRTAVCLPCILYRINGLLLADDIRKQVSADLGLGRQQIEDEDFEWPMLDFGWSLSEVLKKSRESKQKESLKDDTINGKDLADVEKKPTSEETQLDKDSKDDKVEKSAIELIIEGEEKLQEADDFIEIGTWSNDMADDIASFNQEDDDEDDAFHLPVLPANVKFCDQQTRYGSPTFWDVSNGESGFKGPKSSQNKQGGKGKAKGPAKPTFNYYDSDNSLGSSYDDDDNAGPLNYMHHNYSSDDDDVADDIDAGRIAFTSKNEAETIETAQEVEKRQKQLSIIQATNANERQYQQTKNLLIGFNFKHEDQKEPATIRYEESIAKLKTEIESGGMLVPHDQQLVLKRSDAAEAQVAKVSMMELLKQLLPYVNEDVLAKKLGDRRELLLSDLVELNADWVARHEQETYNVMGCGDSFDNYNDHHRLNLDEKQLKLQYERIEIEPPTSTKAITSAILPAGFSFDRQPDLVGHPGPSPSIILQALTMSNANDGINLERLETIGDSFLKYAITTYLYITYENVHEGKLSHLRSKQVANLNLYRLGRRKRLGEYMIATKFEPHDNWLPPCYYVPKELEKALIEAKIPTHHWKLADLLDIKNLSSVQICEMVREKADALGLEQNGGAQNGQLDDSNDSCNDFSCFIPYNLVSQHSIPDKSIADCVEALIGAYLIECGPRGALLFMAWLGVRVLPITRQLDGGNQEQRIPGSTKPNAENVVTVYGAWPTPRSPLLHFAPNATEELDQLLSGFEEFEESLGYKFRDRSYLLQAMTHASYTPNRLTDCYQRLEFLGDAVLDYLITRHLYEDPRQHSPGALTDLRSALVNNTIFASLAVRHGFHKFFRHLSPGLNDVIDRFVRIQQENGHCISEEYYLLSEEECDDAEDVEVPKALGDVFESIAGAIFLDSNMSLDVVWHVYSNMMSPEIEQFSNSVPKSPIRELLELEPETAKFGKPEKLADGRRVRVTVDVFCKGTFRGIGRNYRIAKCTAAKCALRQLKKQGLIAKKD
T1 sequence (Q9VJY9 whole entry, chain 2 of 2, canonical isoform): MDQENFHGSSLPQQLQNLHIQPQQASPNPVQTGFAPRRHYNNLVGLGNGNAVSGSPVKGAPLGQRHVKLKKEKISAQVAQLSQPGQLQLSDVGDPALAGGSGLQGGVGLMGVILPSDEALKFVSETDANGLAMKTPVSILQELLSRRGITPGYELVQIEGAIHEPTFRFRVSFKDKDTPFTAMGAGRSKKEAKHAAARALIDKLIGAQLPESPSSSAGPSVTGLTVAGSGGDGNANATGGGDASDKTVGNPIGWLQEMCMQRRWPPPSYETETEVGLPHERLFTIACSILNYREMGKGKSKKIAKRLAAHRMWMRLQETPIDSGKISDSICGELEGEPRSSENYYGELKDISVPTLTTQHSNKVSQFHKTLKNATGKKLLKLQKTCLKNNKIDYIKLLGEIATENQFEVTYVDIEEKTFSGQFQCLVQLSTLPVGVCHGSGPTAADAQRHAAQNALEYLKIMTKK

B1: model pre-miRNA (structured_RNA)
RNA: UGAGGUAGUAGGUUGUAUAGUAGUAAUUACACAUCAUACUAUACAACCUACUACCUCUCU
modifications: 5' phosphate
As for B1, in data set [1], the binding result is on record as “binds”.

B2: pre-let-7 (structured_RNA)
RNA: B1 RNA with C47U, C48G, A50G, C54G, C57U
modifications: 5' phosphate
On to B2, for which, in data set [2], the binding result is given as “binds”.

B3: model miRNA/miRNA* duplex (dsRNA)
RNA 1: UGAGGUAGUAGGUUGUAUAGUA
RNA 2: CUAUACAACCUACUACCUCUCU
modifications: 5' phosphates
Turning to B3, the binding result in data set [3] is recorded as “binds”.

B4: nicked model pre-miRNA (5' arm cleaved) (structured_RNA)
RNA 1: UGAGGUAGUAGGUUGUAUAGUA
RNA 2: GUAAUUACACAUCAUACUAUACAACCUACUACCUCUCU
modifications: 5' phosphate
B4: in data set [4], the binding result is recorded as “binds”.
